The values that follow come from US20030040044A1.

For test [1], the target named is αVβ3 integrin on human cells (human) (UniProt P06756). In words: saturation binding of 125-I ReoPro to A375S2 cells (express αvβ3 and αvβ5; ReoPro showed no binding to αvβ5), n = 3.
Test [2] has the same target. In words: saturation binding of 125-I ReoPro to M21 cells, Bmax, n = 7.
Test [3] shares this target. In words: saturation binding of 125-I ReoPro to M21 cells (express αvβ3 and αvβ5; ReoPro showed no binding to αvβ5), n = 3.
For test [4] the target is unchanged. In words: saturation binding of 125-I ReoPro to A375S2 cells, Bmax, n = 6.
For test [5] the target is unchanged.
Test [6] has the same target. This is another data set of the same source.

B1: ReoPro (Fab, INN chains, looked up, V domains shown)
VH: EVQLQQSGTVLARPGASVKMSCEASGYTFTNYWMHWVKQRPGQGLEWIGAIYPGNSDTSYIQKFKGKAKLTAVTSTTSVYMELSSLTNEDSAVYYCTLYDGYYVFAYWGQGTLVTVSA
VL: EIVLTQSPVTLSVTPGDSVSLSCRASRDISNNLHWFQQTSHESPRLLIKYASQSMSGIPSRFSGSGSGTDFTLSINSVETEDFGMYFCQQTNSWPYTFGGGTKLEIK
modifications: Fab 125I label in some assays
B1 came in with a dissociation constant Kd in test [1] of 22 nM. In test [2], the Receptors per cell (receptors per cell) turned out to be 660000. In test [3], the Kd was found to be 10 nM. For the same molecule, the Receptors per cell (receptors per cell) in test [4] was 370000. Further, in test [5], the Adhesion (%) of A375S.2 cells to fibrin (% of adhesion without antibody) turned out to be 12.9, the Adhesion (%) of A375S.2 cells to fibrinogen (% of adhesion without antibody) amounted to 6.5, the Adhesion (%) of A375S.2 cells to gelatin (% of adhesion without antibody) is 6 and the Adhesion (%) of A375S.2 cells to vitronectin (% of adhesion without antibody) stood at 38.1. In test [6], this molecule registered an Adhesion (%) of HUVEC to fibrin (% of adhesion without antibody) of 35.8, an Adhesion (%) of HUVEC to fibrinogen (% of adhesion without antibody) of 8.7, an Adhesion (%) of HUVEC to gelatin (% of adhesion without antibody) of 2.5 and an Adhesion (%) of HUVEC to vitronectin (% of adhesion without antibody) of 54.9.
